Read-outs that look alike come from different tables or passages of the source. Where a SMILES comes first, the peptide text is derived from it. [ ]: non-standard residue; d: D form. The star is where a group is joined. ξ: configuration not given here. X1 = CN1/C(=C/C=C/C=C/C2=[N+](CCCCCC(=O)*)c3ccc(S(=O)(=O)O)cc3C2(C)C)C(C)(C)c2cc(S(=O)(=O)[O-])ccc21; X3 = CN1/C(=C/C=C/C=C/C2=[N+](CCCCCC(=O)*)c3ccc(S(=O)(=O)[O-])cc3C2(C)C)C(C)(C)c2cc(S(=O)(=O)O)ccc21; DOTA = O=C(O)CN1CCN(CC(=O)O)CCN(CC(=O)*)CCN(CC(=O)O)CC1; EuK = O=C(O)CC[C@H](NC(=O)N[C@@H](CCCCN*)C(=O)O)C(=O)O; X2 = O=C(O)CC[C@@H](NC(=O)N[C@H](CCCCN*)C(=O)O)C(=O)O; 2Nal = N[C@@H](Cc1ccc2ccccc2c1)C(=O)O; d2Nal = N[C@H](Cc1ccc2ccccc2c1)C(=O)O; Trx = NC[C@H]1CC[C@H](C(=O)O)CC1; ξK = NCCCCC(N)C(=O)O; βAla = NCCC(=O)O; Sar = CNCC(=O)O
Columns and labels:
PSMA+-cells (LNCaP) = test: Cell surface binding and internalization experiments; assay type: cell-based; settings: 68Ga-labeled compounds, 30 nM, 45 min 37 °C, specific uptake by blockage with 500 μM 2-PMPA, mean ± SD n=3
Description: For internalization experiments, 10^5 cells per well were seeded in poly-L-lysine coated 24-well cell culture plates 24 h before incubation. After washing, the cells were incubated with 30 nM of the radiolabeled compound for 45 min at 37° C. Cellular uptake was terminated by washing 3 times with 1 mL of ice-cold PBS. To remove surface-bound radioactivity, cells were incubated twice with 0.5 mL glycine-HCl in PBS (50 mM, pH=2.8) for 5 min. The cells were washed with 1 mL of ice-cold PBS and lysed using 0.3 N NaOH (0.5 mL). The surface-bound and the internalized fractions were measured in a gamma counter. The cell uptake was calculated as percent of the initially added radioactivity bound to 10^5 cells [% ID/10^5 cells].

PSMA = biological target: T1, PSMA (Homo sapiens, UniProt Q04609); settings: cited from earlier work
T1 construct: determined in vitro using PSMA^+-cells (LNCaP); host or cells: LNCaP cells
T1 sequence (Q04609 whole entry): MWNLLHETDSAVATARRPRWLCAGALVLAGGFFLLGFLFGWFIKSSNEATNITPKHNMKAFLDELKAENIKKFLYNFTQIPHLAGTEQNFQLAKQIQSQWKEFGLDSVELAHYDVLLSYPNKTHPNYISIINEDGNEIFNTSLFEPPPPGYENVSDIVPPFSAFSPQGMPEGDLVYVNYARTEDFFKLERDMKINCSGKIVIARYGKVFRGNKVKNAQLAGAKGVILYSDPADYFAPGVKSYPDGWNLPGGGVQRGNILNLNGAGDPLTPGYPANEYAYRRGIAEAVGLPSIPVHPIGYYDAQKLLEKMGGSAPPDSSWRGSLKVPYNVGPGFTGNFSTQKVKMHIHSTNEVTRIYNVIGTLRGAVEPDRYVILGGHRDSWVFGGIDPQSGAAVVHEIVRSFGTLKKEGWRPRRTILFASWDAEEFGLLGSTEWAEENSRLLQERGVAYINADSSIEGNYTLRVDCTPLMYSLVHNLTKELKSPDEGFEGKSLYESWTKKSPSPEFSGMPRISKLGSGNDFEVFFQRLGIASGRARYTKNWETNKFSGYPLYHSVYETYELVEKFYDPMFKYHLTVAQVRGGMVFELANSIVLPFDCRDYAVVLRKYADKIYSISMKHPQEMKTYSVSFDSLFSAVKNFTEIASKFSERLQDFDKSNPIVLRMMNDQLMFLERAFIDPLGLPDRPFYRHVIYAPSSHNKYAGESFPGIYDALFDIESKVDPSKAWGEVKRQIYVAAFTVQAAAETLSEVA

in vivo = test: in vivo; set-up: species or system BALB/c nu/nu mice; settings: male, BALB/c nu/nu, mouse, iv, 0.06 nmol, total radioactivity; for tissue to tissue ratio at 1 h: LNCaP Tumor-to-Organ ratio; for tissue uptake at 1 h: Organ distribution
LNCaP xenograft tumors = settings: cited from earlier work

## CN(CC(=O)NC[C@H]1CC[C@H](C(=O)N[C@@H](Cc2ccc3ccccc3c2)C(=O)NCCCC[C@H](NC(=O)N[C@@H](CCC(=O)O)C(=O)O)C(=O)O)CC1)C(=O)CN(C)C(=O)CN(C)C(=O)CN(C)C(=O)CN(C)C(=O)[C@H](CCCCNC(=O)CN1CCN(CC(=O)O)CCN(CC(=O)O)CCN(CC(=O)O)CC1)NC(=O)CN(C)C(=O)CN(C)C(=O)CN(C)C(=O)CN(C)C(=O)CN(C)C(=O)CCNC(=O)CCCCC[N+]1=C(/C=C/C=C/C=C2/N(C)c3ccc(S(=O)(=O)O)cc3C2(C)C)C(C)(C)c2cc(S(=O)(=O)[O-])ccc21 [BP-1, Glu-urea-Lys-2-Nal-Chx-Sar5-Lys(DOTA)-Sar5-bAla-sulfoCy5] ({X3-βAla}-[Sar][Sar][Sar][Sar][Sar]K(DOTA)[Sar][Sar][Sar][Sar][Sar][Trx][2Nal]-EuK)
PSMA+-cells (LNCaP)
  Specifically cell surface bound: 1.3 ± 0.6 % AR/10^5 cells
  Specifically internalized: 1.1 ± 1.0 % AR/10^5 cells

## CN(CC(=O)NC[C@H]1CC[C@H](C(=O)N[C@@H](Cc2ccc3ccccc3c2)C(=O)NCCCC[C@H](NC(=O)N[C@@H](CCC(=O)O)C(=O)O)C(=O)O)CC1)C(=O)CN(C)C(=O)CN(C)C(=O)CN(C)C(=O)CN(C)C(=O)[C@H](CCCCNC(=O)CCCCC[N+]1=C(/C=C/C=C/C=C2/N(C)c3ccc(S(=O)(=O)O)cc3C2(C)C)C(C)(C)c2cc(S(=O)(=O)[O-])ccc21)NC(=O)CN(C)C(=O)CN(C)C(=O)CN(C)C(=O)CN(C)C(=O)CN(C)C(=O)CCNC(=O)CN1CCN(CC(=O)O)CCN(CC(=O)O)CCN(CC(=O)O)CC1 [BP-4, Glu-urea-Lys-2-Nal-Chx-Sar5-Lys(sulfoCy5)-Sar5-bAla-DOTA] ({DOTA-βAla}-[Sar][Sar][Sar][Sar][Sar]K(X3)[Sar][Sar][Sar][Sar][Sar][Trx][2Nal]-EuK)
PSMA+-cells (LNCaP)
  Specifically cell surface bound: 0.8 ± 1.0 % AR/10^5 cells
  Specifically internalized: 0.4 ± 0.7 % AR/10^5 cells

## O=C(O)CC[C@H](NC(=O)N[C@@H](CCCCNC(=O)[C@H](Cc1ccc2ccccc2c1)NC(=O)[C@H]1CC[C@H](CNC(=O)CN2CCN(CC(=O)O)CCN(CC(=O)O)CCN(CC(=O)O)CC2)CC1)C(=O)O)C(=O)O [PSMA-617, reference compound]
PSMA+-cells (LNCaP)
  Specifically cell surface bound: 0.3 ± 0.1 % AR/10^5 cells
  Specifically internalized: 1.2 ± 0.6 % AR/10^5 cells
PSMA; ki-value for PSMA-617 from Benesova et al. (3), read-out: ki free ligands
  Ki: 2.3 ± 2.9 nM

## CN(CC(=O)NC[C@H]1CC[C@H](C(=O)N[C@H](Cc2ccc3ccccc3c2)C(=O)NCCCC[C@@H](NC(=O)N[C@H](CCC(=O)O)C(=O)O)C(=O)O)CC1)C(=O)CN(C)C(=O)CN(C)C(=O)CN(C)C(=O)CN(C)C(=O)C(CCCCNC(=O)CN1CCN(CC(=O)O)CCN(CC(=O)O)CCN(CC(=O)O)CC1)NC(=O)CN(C)C(=O)CN(C)C(=O)CN(C)C(=O)CN(C)C(=O)CN(C)C(=O)CCNC(=O)CCCCC[N+]1=C(/C=C/C=C/C=C2/N(C)c3ccc(S(=O)(=O)[O-])cc3C2(C)C)C(C)(C)c2cc(S(=O)(=O)O)ccc21 (stereo partly shown) [^177Lu-BP-1, metal not drawn] ({X1-βAla}-[Sar][Sar][Sar][Sar][Sar][ξK](DOTA)[Sar][Sar][Sar][Sar][Sar][Trx][d2Nal]-X2)
In vivo; Blood
  tissue to tissue ratio at 1 h: 40 ± 4.75
  tissue uptake at 1 h: 0.16 ± 0.02 %ID/g
In vivo; Brain
  tissue to tissue ratio at 1 h: 423 ± 81.3
  tissue uptake at 1 h: 0.02 ± 0.001 %ID/g
In vivo; Heart
  tissue to tissue ratio at 1 h: 64.5 ± 12.8
  tissue uptake at 1 h: 0.1 ± 0.004 %ID/g
In vivo; Intestine
  tissue to tissue ratio at 1 h: 76.3 ± 13.1
  tissue uptake at 1 h: 0.08 ± 0.01 %ID/g
In vivo; Kidney
  tissue to tissue ratio at 1 h: 0.34 ± 0.04
  tissue uptake at 1 h: 18.9 ± 4.56 %ID/g
In vivo; Liver
  tissue to tissue ratio at 1 h: 27.8 ± 5.94
  tissue uptake at 1 h: 0.24 ± 0.03 %ID/g
In vivo; Lung
  tissue to tissue ratio at 1 h: 18.2 ± 4.54
  tissue uptake at 1 h: 0.38 ± 0.03 %ID/g
In vivo; Muscle
  tissue to tissue ratio at 1 h: 165 ± 31.4
  tissue uptake at 1 h: 0.04 ± 0.004 %ID/g
In vivo; Spleen
  tissue to tissue ratio at 1 h: 8.05 ± 1.05
  tissue uptake at 1 h: 0.78 ± 0.03 %ID/g
In vivo; Tumor LNCaP
  tissue uptake at 1 h: 5.85 ± 1.16 %ID/g

## CN(CC(=O)NC[C@H]1CC[C@H](C(=O)N[C@H](Cc2ccc3ccccc3c2)C(=O)NCCCC[C@@H](NC(=O)N[C@H](CCC(=O)O)C(=O)O)C(=O)O)CC1)C(=O)CN(C)C(=O)CN(C)C(=O)CN(C)C(=O)CN(C)C(=O)C(CCCCNC(=O)CCCCC[N+]1=C(/C=C/C=C/C=C2/N(C)c3ccc(S(=O)(=O)[O-])cc3C2(C)C)C(C)(C)c2cc(S(=O)(=O)O)ccc21)NC(=O)CN(C)C(=O)CN(C)C(=O)CN(C)C(=O)CN(C)C(=O)CN(C)C(=O)CCNC(=O)CN1CCN(CC(=O)O)CCN(CC(=O)O)CCN(CC(=O)O)CC1 (stereo partly shown) [^177Lu-BP-4, metal not drawn] ({DOTA-βAla}-[Sar][Sar][Sar][Sar][Sar][ξK](X1)[Sar][Sar][Sar][Sar][Sar][Trx][d2Nal]-X2)
In vivo; Blood
  tissue to tissue ratio at 1 h: 25.9 ± 9.14
  tissue uptake at 1 h: 0.23 ± 0.08 %ID/g
In vivo; Brain
  tissue to tissue ratio at 1 h: 275 ± 63.6
  tissue uptake at 1 h: 0.02 ± 0.002 %ID/g
In vivo; Heart
  tissue to tissue ratio at 1 h: 48.6 ± 15.7
  tissue uptake at 1 h: 0.12 ± 0.02 %ID/g
In vivo; Intestine
  tissue to tissue ratio at 1 h: 49.3 ± 18.2
  tissue uptake at 1 h: 0.12 ± 0.04 %ID/g
In vivo; Kidney
  tissue to tissue ratio at 1 h: 0.17 ± 0.08
  tissue uptake at 1 h: 37.5 ± 12.1 %ID/g
In vivo; Liver
  tissue to tissue ratio at 1 h: 36.1 ± 6.7
  tissue uptake at 1 h: 0.14 ± 0.01 %ID/g
In vivo; Lung
  tissue to tissue ratio at 1 h: 12.1 ± 2.03
  tissue uptake at 1 h: 0.4 ± 0.04 %ID/g
In vivo; Muscle
  tissue to tissue ratio at 1 h: 110 ± 51.7
  tissue uptake at 1 h: 0.06 ± 0.002 %ID/g
In vivo; Spleen
  tissue to tissue ratio at 1 h: 7.83 ± 0.85
  tissue uptake at 1 h: 0.59 ± 0.12 %ID/g
In vivo; Tumor LNCaP
  tissue uptake at 1 h: 4.3 ± 0.27 %ID/g

## O=C([O-])CN1CCN(CC(=O)[O-])CCN(CC(=O)NCC2CCC(C(=O)N[C@@H](Cc3ccc4ccccc4c3)C(=O)NCCCC[C@H](NC(=O)N[C@@H](CCC(=O)O)C(=O)O)C(=O)O)CC2)CCN(CC(=O)[O-])CC1.[177Lu+3] (stereo partly shown) [^177Lu-PSMA-617]
LNCaP xenograft tumors; reference values (4), 1 h p.i. printed for 177Lu-PSMA-617
  tumor uptake in LNCaP xenograft tumors, reference compounds: 8.47±4.09 % ID/g
LNCaP xenograft tumors; reference values (4)
  kidney uptake, reference compounds: 137.2±77.8 % ID/g

## [Glu-urea-Lys(Ahx)]2-HBED-CC [^68Ga-PSMA-10]
PSMA; radioligand 68Ga-PSMA-10, reference (1)
  Kd: 3.8 nM

## ^68Ga-Glu-urea-Lys-2-Nal-Chx-Lys(IRDye800CW)-DOTA
LNCaP xenograft tumors; mouse, in vivo
  kidney uptake, reference compounds: 65.64±6.60 % ID/g

Reference: patent publication US20250360236A1, “PROSTATE SPECIFIC MEMBRANE ANTIGEN (PSMA) LIGANDS” (Deutsches Krebsforschungszentrum Stiftung des öffentlichen …, priority 2022, published 2025)
